The values that follow come from doi:10.1101/293738 (bioRxiv, 2018).

This test addresses T1, LonS674A labelled with Atto-488 (LonS674A*) (Caulobacter crescentus, UniProt P0CAW0 1-799, S674A, Atto-488 on lysine residues (NHS ester)).
T1 sequence (looked up): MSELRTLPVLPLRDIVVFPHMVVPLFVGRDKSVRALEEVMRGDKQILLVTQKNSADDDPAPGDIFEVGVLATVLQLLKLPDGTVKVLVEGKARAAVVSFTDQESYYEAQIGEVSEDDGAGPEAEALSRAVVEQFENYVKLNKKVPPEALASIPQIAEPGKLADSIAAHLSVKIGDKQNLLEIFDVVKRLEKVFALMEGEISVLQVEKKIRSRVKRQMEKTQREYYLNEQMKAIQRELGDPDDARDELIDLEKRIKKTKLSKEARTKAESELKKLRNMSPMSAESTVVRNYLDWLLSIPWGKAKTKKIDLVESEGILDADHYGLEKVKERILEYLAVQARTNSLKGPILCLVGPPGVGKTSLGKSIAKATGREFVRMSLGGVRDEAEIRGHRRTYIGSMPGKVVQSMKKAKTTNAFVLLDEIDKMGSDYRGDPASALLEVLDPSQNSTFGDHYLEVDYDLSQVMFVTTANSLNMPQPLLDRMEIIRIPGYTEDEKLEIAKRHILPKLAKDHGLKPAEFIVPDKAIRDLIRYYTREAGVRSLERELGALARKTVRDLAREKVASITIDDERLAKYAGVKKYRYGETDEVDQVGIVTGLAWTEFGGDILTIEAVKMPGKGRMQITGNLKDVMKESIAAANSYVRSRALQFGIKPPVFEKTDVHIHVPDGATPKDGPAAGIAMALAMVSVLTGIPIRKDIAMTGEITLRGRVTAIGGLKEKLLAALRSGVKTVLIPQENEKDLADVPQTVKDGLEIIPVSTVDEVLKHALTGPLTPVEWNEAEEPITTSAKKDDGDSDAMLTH
As to the kind of experiment: MST.

B1: CcrM DNA methyltransferase (purified recombinant) (enzyme, Caulobacter crescentus, UniProt P0CAW2 1-358, looked up)
chain: MKFGPETIIHGDCIEQMNALPEKSVDLIFADPPYNLQLGGDLLRPDNSKVDAVDDHWDQFESFAAYDKFTREWLKAARRVLKDDGAIWVIGSYHNIFRVGVAVQDLGFWILNDIVWRKSNPMPNFKGTRFANAHETLIWASKSQNAKRYTFNYDALKMANDEVQMRSDWTIPLCTGEERIKGADGQKAHPTQKPEALLYRVILSTTKPGDVILDPFFGVGTTGAAAKRLGRKFIGIEREAEYLEHAKARIAKVVPIAPEDLDVMGSKRAEPRVPFGTIVEAGLLSPGDTLYCSKGTHVAKVRPDGSITVGDLSGSIHKIGALVQSAPACNGWTYWHFKTDAGLAPIDVLRAQVRAGMN
The Kd is the equilibrium constant for the complex coming apart. Low readings indicate higher affinity, high ones lower affinity. Molecule B1 yielded a Kd of 1180 ± 85 nM.
